Tests used:
Grb2 SH2 = Grb2 SH2 (UniProt P62993); assay: SH2 binding enrichment of the phosphorylated peptide, bacterial display (enrichment ratio); higher = better substrate or ligand; peptides without Tyr show the background
c-Src SH2 = assay: as above
SHP2-C SH2 = assay: as above
FGFR1 = FGFR1 (UniProt P11362); assay: phosphorylation enrichment, bacterial display (enrichment ratio); higher = better substrate or ligand; peptides without Tyr show the background
c-Src = assay: as above
EPHB2 = EPHB2 (UniProt P29323); assay: as above
Fes = Fes (UniProt P07332); assay: as above
Hck = Hck (UniProt P08631); assay: as above
Jak2 = Jak2 (UniProt O60674); assay: as above
Fer (mouse) = assay: as above
MERTK = MERTK (UniProt Q12866); assay: as above
c-Abl (mouse) = assay: as above
AncSZ = assay: as above
Fyn = Fyn (UniProt P06241); assay: as above
FGFR3 = FGFR3 (UniProt P22607); assay: as above
EPHB1 = EPHB1 (UniProt P54762); assay: as above
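For SH2 binding enrichment of the phosphorylated peptide, bacterial display in this document: peptide library displayed on the E. coli surface as eCPX fusions, selected cells deep-sequenced, score is each peptide's frequency after selection divided by its frequency in the input.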
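For phosphorylation enrichment, bacterial display in this document: 11-residue human phosphosite peptides and single-mutation variants displayed on the E. coli surface, counted by deep sequencing, each peptide's frequency after selection divided by its frequency in the unselected input library; frequency after pTyr selection over input frequency; kinase dosed for 20-30% of maximal phosphorylation in three min.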

Sequence of MERTK (Q12866 whole entry, looked up): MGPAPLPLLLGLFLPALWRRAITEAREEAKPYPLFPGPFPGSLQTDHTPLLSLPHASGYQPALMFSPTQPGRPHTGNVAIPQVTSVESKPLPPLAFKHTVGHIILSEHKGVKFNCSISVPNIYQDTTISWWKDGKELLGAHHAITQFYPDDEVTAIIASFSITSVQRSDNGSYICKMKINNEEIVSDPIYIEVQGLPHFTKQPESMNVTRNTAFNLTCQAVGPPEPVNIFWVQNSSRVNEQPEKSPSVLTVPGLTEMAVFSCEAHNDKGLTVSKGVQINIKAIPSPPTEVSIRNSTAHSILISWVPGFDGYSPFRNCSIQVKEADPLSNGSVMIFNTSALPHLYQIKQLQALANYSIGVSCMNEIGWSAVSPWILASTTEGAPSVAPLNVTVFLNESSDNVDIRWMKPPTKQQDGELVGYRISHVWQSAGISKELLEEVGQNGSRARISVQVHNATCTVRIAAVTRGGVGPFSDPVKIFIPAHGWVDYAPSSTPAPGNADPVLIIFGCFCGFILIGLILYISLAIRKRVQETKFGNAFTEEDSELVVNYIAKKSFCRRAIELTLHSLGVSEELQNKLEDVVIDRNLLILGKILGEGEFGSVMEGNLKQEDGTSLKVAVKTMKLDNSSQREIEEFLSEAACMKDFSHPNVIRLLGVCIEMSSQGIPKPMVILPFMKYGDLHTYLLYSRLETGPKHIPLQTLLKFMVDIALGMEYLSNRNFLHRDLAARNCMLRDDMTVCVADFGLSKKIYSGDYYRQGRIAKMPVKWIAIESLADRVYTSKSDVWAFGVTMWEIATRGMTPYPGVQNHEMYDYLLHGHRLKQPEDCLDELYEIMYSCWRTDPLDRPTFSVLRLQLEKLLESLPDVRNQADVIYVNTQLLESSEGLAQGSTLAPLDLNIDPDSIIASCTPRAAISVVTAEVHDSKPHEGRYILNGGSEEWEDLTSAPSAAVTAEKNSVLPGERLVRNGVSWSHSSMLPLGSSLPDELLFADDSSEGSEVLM
Sequence of Grb2 SH2 (P62993 whole entry, looked up): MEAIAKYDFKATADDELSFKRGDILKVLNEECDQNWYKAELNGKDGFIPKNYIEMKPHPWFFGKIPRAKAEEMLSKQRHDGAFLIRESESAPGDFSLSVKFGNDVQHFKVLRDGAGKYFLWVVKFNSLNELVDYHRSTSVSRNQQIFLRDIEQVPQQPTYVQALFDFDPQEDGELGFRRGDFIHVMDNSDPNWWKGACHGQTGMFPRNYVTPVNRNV
Sequence of Fes (P07332 whole entry, looked up): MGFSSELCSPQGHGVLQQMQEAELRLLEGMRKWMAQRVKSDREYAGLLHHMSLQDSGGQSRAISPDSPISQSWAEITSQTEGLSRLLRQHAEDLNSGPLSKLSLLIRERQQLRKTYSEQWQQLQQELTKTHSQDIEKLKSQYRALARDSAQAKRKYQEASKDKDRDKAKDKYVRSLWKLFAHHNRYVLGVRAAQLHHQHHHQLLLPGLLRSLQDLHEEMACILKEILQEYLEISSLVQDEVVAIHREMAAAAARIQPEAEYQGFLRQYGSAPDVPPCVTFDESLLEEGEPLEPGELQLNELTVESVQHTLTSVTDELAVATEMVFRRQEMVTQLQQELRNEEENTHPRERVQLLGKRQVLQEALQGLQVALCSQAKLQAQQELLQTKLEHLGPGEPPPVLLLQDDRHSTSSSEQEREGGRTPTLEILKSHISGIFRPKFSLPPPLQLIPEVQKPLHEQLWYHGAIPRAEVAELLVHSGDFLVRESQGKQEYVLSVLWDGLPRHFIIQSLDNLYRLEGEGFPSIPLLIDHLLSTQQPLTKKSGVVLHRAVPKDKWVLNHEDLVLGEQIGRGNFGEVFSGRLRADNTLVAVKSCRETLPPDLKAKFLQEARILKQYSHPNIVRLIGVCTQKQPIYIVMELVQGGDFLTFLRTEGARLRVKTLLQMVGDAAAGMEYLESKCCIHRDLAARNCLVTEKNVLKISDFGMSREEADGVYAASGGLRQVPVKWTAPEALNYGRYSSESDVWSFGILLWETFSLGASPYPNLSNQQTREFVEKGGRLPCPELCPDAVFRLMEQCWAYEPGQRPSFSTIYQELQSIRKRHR
Sequence of FGFR3 (P22607 whole entry, looked up): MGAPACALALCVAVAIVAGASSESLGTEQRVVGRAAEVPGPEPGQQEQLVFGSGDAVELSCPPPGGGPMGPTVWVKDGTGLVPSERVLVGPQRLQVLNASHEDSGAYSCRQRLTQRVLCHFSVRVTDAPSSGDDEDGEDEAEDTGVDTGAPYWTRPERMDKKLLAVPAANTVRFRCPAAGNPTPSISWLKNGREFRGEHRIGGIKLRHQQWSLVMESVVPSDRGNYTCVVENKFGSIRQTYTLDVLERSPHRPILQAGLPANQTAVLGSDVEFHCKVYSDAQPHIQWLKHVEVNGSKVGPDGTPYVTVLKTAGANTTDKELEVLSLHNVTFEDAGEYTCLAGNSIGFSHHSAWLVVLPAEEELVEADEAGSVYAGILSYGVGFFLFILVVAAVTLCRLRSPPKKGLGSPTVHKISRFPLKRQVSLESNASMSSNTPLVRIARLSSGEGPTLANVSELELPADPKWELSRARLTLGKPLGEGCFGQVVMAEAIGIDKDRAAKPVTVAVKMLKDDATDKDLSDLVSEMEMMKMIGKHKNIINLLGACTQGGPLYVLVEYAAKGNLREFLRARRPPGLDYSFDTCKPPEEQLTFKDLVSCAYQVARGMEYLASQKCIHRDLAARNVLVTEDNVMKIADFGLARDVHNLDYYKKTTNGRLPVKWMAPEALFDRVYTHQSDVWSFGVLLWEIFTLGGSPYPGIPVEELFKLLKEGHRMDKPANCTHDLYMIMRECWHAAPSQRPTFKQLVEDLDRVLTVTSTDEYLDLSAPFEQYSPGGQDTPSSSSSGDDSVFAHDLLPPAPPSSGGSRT
Sequence of FGFR1 (P11362 whole entry, looked up): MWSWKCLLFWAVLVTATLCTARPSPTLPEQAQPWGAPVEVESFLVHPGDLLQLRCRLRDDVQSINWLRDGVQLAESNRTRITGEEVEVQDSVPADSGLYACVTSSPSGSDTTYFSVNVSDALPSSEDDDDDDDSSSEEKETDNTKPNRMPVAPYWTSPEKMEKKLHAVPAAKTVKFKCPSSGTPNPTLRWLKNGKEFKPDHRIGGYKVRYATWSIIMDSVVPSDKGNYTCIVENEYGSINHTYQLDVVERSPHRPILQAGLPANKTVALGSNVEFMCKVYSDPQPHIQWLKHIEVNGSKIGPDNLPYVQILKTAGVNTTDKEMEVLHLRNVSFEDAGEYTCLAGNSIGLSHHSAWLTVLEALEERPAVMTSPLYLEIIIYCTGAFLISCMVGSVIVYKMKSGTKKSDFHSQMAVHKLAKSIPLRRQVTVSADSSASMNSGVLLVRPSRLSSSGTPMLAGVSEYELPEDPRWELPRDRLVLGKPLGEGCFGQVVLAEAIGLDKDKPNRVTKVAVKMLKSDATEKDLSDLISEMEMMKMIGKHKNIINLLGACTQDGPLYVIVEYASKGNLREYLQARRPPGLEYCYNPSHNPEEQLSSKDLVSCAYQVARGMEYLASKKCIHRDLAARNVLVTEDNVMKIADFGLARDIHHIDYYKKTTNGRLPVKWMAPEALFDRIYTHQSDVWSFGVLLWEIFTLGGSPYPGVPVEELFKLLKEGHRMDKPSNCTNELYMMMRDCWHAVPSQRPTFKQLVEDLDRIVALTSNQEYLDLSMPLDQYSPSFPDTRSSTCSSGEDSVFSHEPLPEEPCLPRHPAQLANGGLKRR
Sequence of Jak2 (O60674 whole entry, looked up): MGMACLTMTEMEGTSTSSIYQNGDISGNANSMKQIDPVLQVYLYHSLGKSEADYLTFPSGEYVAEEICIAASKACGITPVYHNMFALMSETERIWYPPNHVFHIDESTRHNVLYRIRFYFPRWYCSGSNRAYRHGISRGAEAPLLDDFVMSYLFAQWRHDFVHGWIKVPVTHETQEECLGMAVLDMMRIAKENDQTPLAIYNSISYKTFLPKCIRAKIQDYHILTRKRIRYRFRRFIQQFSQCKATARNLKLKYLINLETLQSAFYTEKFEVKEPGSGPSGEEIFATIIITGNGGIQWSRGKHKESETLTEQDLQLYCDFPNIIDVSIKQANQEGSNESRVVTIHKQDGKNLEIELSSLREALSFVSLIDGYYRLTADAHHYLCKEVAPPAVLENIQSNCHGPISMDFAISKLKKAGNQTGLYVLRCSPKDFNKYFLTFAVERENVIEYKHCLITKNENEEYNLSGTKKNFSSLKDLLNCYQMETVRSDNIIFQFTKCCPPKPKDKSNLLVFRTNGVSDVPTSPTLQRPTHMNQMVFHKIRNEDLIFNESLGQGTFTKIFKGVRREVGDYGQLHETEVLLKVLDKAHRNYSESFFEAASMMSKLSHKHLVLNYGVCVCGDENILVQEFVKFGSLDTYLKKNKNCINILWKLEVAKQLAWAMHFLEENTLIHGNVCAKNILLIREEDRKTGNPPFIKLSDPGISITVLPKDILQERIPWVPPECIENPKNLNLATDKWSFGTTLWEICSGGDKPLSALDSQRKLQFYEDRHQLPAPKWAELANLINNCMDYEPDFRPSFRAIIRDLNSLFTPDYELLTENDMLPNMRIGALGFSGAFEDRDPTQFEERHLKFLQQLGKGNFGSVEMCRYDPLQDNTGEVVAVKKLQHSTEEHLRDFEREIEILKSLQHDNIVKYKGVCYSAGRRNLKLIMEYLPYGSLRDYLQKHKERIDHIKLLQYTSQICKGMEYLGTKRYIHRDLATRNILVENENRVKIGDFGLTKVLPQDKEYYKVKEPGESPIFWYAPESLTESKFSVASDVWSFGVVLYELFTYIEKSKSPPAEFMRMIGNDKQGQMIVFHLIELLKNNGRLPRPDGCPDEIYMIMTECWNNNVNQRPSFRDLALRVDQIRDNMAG

Sequence	SH2 binding enrichment (Grb2 SH2)	SH2 binding enrichment (c-Src SH2)	SH2 binding enrichment (SHP2-C SH2)	phosphorylation enrichment (FGFR1)	phosphorylation enrichment (c-Src)	phosphorylation enrichment (EPHB2)	phosphorylation enrichment (Fes)	phosphorylation enrichment (Hck)	phosphorylation enrichment (Jak2)	phosphorylation enrichment (Fer (mouse))	phosphorylation enrichment (MERTK)	phosphorylation enrichment (c-Abl (mouse))	phosphorylation enrichment (AncSZ)	phosphorylation enrichment (Fyn)	phosphorylation enrichment (FGFR3)	phosphorylation enrichment (EPHB1)
PLQKIYNFNVL [SLC4A1_Y553_T552I_YF]	1.29	0.906	1.08	0.793	2.63	0.84	1.44	1.12	1.19	0.795	0.811	1.06	0.985	1.43	0.684	0.743
GVIRHSVVCST [BTK_Y334_Y334S]	0.996	0.586	0.637	0.453	0.45	0.456	0.82	0.436	0.67	0.477	0.446	0.607	0.783	0.42	0.51	0.508
PQGVSYIYTID [DCX_Y103_R102S]	1.05	0.644	13	1.06	6.93	0.856	1.79	5.22	1.55	0.728	3.15	1.32	1.62	10.6	1.64	0.985
GCVSKYSGVFS [TUBGCP6_Y1624]	0.83	0.596	0.906	0.321	0.463	0.458	0.964	0.411	0.81	0.403	0.514	0.619	0.815	0.357	0.51	0.433
DEFLEHRRIVG [FAM221A_Y20_Y20H_YF]	0.813	0.531	0.574	0.45	0.409	0.494	0.902	0.47	0.716	0.387	0.48	0.58	0.747	0.425	0.502	0.447
CPPKVYELMRA [ABL2_Y515]	0.944	1.53	0.693	0.73	1.33	2.41	1.04	1.81	0.53	6.41	3.81	0.585	0.662	1.13	0.679	8.38
ATDLAYYLVRK [ASL_Y375]	1.25	0.798	0.988	4.91	1.27	0.543	1.41	0.885	3.03	0.786	1.19	1.04	1.63	0.85	4.21	0.602
KVITDYYVDMK [MPP4_Y566]	0.875	2.9	0.704	3.97	0.597	0.865	1.07	0.576	1.4	0.496	0.577	0.758	1.26	0.557	2.64	1.71
TLKVGYKEKQR [EPHA3_Y659_T660K]	0.919	1.02	1.14	0.348	0.334	0.366	0.699	0.328	0.812	0.358	0.37	0.547	0.367	0.333	0.555	0.45
ANQDDYISFRH [IMP4_Y226]	0.821	0.46	0.617	1.07	1.11	0.469	0.841	1.19	0.901	0.357	0.482	0.557	1.17	0.899	0.967	0.507
RIDPDYVGRVR [IGSF9_Y81]	0.758	0.583	0.755	0.496	0.563	0.402	0.702	0.403	0.778	0.384	0.405	0.65	0.871	0.481	0.482	0.534
GVKLTYGDAQS [SLC28A1_Y404_N409S]	0.798	0.467	0.646	0.429	0.349	0.34	0.646	0.456	0.46	0.373	0.335	0.52	0.599	0.426	0.453	0.472
CLEKEYFDQHF [NPC1_Y394_R389C]	0.906	0.752	0.547	0.949	0.585	0.572	1.32	0.508	1.04	0.593	0.406	0.902	1.53	0.514	1.13	0.581
SIKDKYVTALF [KCNH2_Y611_YF]	0.8	0.433	0.693	0.525	0.502	0.5	0.846	0.498	0.742	0.441	0.471	0.668	0.684	0.465	0.488	0.449
LWPIWYSCHRP [MRGPRX1_Y130_R131S]	0.924	0.535	0.665	0.643	0.601	0.694	1.97	0.601	1.27	0.881	0.687	0.943	1.82	0.519	1.04	0.83
WRVISYHVVVW [ATP13A2_Y50_G49S]	1.08	0.619	0.994	0.554	0.63	0.61	1.47	0.544	1.26	0.547	0.434	1.03	1.2	0.453	0.826	0.582
VQSASYLNDCL [MCM3AP_Y864_A867D]	2.03	0.572	0.875	0.757	0.422	0.602	0.97	0.502	0.798	0.487	0.447	0.693	0.788	0.448	0.712	0.536

Sequence	SH2 binding enrichment (Grb2 SH2)	SH2 binding enrichment (c-Src SH2)	SH2 binding enrichment (SHP2-C SH2)	phosphorylation enrichment (FGFR1)	phosphorylation enrichment (c-Src)	phosphorylation enrichment (EPHB2)	phosphorylation enrichment (Fes)	phosphorylation enrichment (Hck)	phosphorylation enrichment (Jak2)	phosphorylation enrichment (Fer (mouse))	phosphorylation enrichment (MERTK)	phosphorylation enrichment (c-Abl (mouse))	phosphorylation enrichment (AncSZ)	phosphorylation enrichment (Fyn)	phosphorylation enrichment (FGFR3)	phosphorylation enrichment (EPHB1)
QMVGMYASFYM [AVPR2_Y124_S127F]	0.784	0.538	0.842	0.45	6.92	1.92	1.65	5.46	1.79	3.65	4.41	3.61	1.35	7.85	1	2.49
EFENSCIFDIN [GAB1_Y83_Y83C]	1.18	0.786	0.732	0.45	0.397	0.431	0.963	0.406	0.824	0.42	0.895	0.673	0.958	0.483	0.632	0.403
GYGGGYGGVLT [KRT19_Y65_A60G]	0.742	0.448	0.791	0.468	0.453	0.47	0.641	0.665	0.575	0.419	0.391	0.468	0.556	0.42	0.511	0.359
MTFVFYRENLR [NLRP14_Y443_YF]	1.34	0.716	1.14	0.562	0.288	0.719	1.34	0.525	1.13	0.576	0.369	0.668	1.42	0.48	0.927	0.585
VRRRSYSAGNA [KANK1_Y324_K321R]	0.706	0.488	0.557	0.549	0.58	0.603	0.49	0.516	0.471	0.664	0.509	0.613	0.567	0.504	0.742	0.404
PLDGEYFTLQV [TP53_Y327_I332V]	0.688	0.483	0.598	12.8	2.09	1.44	1.94	2.74	2.16	0.842	0.494	1.02	3.87	5.07	10.6	2.21
DWLRRYLENGK [HLA-A_Y195_E190D]	0.654	0.211	0.366	0.728	0.617	0.946	1.04	0.705	0.986	1.02	0.864	0.584	1.1	0.642	0.708	0.723
LHQSTYQCFDV [SLC7A14_Y693_R695C_YF]	0.688	0.455	0.56	1.14	5.09	0.896	1.25	1.42	1.14	2.23	2.26	1.05	1.25	3.33	1.11	2.34
KLNNEYLELNY [MME_Y497]	0.931	0.553	0.783	4.67	0.679	1.01	0.892	0.627	0.861	0.417	0.449	0.635	1.08	0.633	3.27	0.925
SDQPDYDSVAS [GIT2_Y392_N387S]	0.783	0.526	0.735	0.625	0.525	0.726	1.27	0.594	1.09	0.739	0.499	0.729	1.29	0.565	0.693	0.655
MSNFAYVKREV [SCN1A_Y1694]	0.797	0.466	0.7	0.447	0.388	0.437	0.986	0.552	0.651	0.419	0.471	0.516	0.729	0.418	0.61	0.457
AEFGLYRAMVR [VSX2_Y222_G223R_YF]	0.89	0.633	0.789	0.484	0.855	0.595	0.779	4.12	0.726	0.431	0.843	1.48	0.753	0.821	0.673	0.731
PNRILYGDFQQ [MYH7_Y715_R719Q]	0.823	0.503	0.935	0.422	3.04	0.516	0.798	1.42	0.861	0.375	0.408	0.549	0.601	4.31	0.475	0.504
GKTQQYECKWY [BCR_Y751_D752E]	0.677	0.735	0.584	0.499	0.522	0.6	1.05	0.447	0.97	0.549	0.487	0.681	0.936	0.443	0.642	0.507
HIKHNYECLVF [XRCC5_Y416_YF]	0.85	4.51	0.715	0.796	0.53	1.44	1.09	0.821	0.547	0.665	0.382	0.4	1.31	0.709	1.09	1.86
FRTGHYLCNAC [GATA1_Y223_D218Y_YF]	1.14	0.743	1.07	0.566	0.401	0.484	0.634	0.443	0.53	0.363	0.399	0.393	0.62	0.44	0.625	0.479

Reference: the supplement of paper PMC10065799, “High-throughput profiling of sequence recognition by tyrosine kinases and SH2 domains using bacterial peptide display” (eLife, 2023)
